Here are results for two molecules from paper PMC8833184.

As usually defined, the Kd is a measure of binding affinity in units of concentration.

Data set [1] addresses T1, SF3A1-UBL WT (human, UniProt Q15459 704-793).
T1 sequence: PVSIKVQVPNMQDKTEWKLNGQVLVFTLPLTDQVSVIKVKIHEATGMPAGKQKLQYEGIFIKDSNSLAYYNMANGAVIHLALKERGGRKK
The data set can be described thus: NMR.

A further data set has as its target T2, SF3A1-UBL R791A (human, UniProt Q15459 704-793, R791A).
T2 sequence: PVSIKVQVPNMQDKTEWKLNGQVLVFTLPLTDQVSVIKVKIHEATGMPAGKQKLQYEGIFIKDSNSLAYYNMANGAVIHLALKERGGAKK
The data set is described as follows: SPR.

The target of data set [2] is T1, SF3A1-UBL WT. The data set can be described thus: SPR.
A further data set deals with T3, SF3A1-UBL G789I (human, UniProt Q15459 704-793, G789I).
T3 sequence: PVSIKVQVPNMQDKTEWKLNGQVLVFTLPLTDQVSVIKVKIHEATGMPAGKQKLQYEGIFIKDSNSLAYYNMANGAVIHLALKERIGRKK
The data set can be described thus: SPR. (In general: SPR reads the build-up and loss of mass on a sensor chip optically.)

In the next data set the target is T4, SF3A1-UBL K717A (human, UniProt Q15459 704-793, K717A).
T4 sequence: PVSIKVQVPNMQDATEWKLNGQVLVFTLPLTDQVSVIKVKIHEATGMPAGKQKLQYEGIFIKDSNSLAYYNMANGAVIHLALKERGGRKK
The data set can be described thus: SPR.

The target of the next data set is T5, SF3A1-UBL G790I (human, UniProt Q15459 704-793, G790I).
T5 sequence: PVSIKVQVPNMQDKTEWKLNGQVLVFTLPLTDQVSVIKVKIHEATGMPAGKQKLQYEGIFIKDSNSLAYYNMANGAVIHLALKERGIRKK
The data set is described as follows: SPR.

A further data set has as its target T6, SF3A1-UBL F763A (human, UniProt Q15459 704-793, F763A).
T6 sequence: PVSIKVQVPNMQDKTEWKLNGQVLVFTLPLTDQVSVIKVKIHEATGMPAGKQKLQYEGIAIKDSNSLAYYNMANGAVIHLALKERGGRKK
The data set is described as follows: SPR.

A further data set addresses T7, SF3A1-UBL K754A (human, UniProt Q15459 704-793, K754A).
T7 sequence: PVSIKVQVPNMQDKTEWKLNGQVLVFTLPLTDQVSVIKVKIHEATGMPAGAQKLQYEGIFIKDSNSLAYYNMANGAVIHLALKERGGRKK
The data set is described as follows: SPR.

Another data set addresses T8, SF3A1-UBL K765A (human, UniProt Q15459 704-793, K765A).
T8 sequence: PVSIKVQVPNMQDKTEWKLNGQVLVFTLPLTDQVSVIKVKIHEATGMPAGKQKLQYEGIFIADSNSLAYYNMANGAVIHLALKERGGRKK
The data set is described as follows: SPR.

Regarding GGGACUGCGUUCGCGCUUUCCC (structured_RNA) [22 nt U1-SL4], the binding result in the data set with SF3A1-UBL WT [1] is given as “binds”.

Regarding GGGGACUGCGUUCGCGCUUUCCCC (structured_RNA) [Biotin-U1-SL4-WT], the Kd with SF3A1-UBL R791A turned out to be 5.97 ± 0.5 µM; in the data set with SF3A1-UBL WT [2], 332 ± 30 nM; in the data set with SF3A1-UBL G789I, 41.9 ± 5.7 µM; in the data set with SF3A1-UBL K717A, 1590 ± 270 nM; with SF3A1-UBL G790I it was 14.1 ± 3.12 µM; with SF3A1-UBL F763A, 2760 ± 300 nM. The results for the Kd with SF3A1-UBL K754A and with SF3A1-UBL K765A were 16.7 ± 4.38 µM and 7.89 ± 0.71 µM, respectively.
